Measurements taken from US20240100176A1 (Eli Lilly, published 2024).
Values belong to the binder of their own block, whether it stands above or below them.

How the values were obtained:
[1] = molecular target: T1, human IL-4Rα on cells (human PBMC B cells and CD4+ T cells, Daudi cells, HEK-Blue IL-4/IL-13 cells, myeloid … (human, UniProt P24394 26-825)); test: cell-based or functional assay
T1 sequence: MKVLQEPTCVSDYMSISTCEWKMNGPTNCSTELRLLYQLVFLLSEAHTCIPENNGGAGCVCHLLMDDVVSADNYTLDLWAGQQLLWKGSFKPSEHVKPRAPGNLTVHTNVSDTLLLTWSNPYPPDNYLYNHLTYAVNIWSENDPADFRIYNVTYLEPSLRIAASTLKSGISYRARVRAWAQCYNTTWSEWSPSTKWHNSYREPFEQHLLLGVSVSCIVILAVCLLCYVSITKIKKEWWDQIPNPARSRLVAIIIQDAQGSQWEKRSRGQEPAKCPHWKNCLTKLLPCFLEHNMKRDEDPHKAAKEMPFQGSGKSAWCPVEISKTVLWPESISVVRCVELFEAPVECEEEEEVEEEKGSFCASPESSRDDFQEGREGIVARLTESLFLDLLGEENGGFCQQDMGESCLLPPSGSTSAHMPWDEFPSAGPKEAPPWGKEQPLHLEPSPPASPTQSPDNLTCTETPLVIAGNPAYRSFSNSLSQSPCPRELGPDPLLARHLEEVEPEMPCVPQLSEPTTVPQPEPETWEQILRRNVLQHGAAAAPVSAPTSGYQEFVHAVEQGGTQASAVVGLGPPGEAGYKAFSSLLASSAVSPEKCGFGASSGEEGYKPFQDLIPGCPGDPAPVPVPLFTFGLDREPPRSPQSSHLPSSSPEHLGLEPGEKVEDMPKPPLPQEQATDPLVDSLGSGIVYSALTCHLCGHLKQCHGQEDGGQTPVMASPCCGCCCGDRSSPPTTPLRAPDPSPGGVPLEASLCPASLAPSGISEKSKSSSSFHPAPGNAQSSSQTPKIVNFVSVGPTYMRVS

[2] = molecular target: T1, human IL-4Rα on cells (human PBMC B …); test: cell-based or functional assay; remark: listed apart in the source
[3] = molecular target: T2, hexahistidine-tagged human IL-4Rα extracellular domain (human, UniProt P24394 26-232); test: competition MSD ELISA (solution equilibrium, 37 °C), apparent KD, mean of 3 experiments
T2 construct: In the MSD assay the plate coat is the His-tagged ECD; also called human IL-4Rα ECD; Wild type receptor; not shown: hexahistidine tag
T2 sequence: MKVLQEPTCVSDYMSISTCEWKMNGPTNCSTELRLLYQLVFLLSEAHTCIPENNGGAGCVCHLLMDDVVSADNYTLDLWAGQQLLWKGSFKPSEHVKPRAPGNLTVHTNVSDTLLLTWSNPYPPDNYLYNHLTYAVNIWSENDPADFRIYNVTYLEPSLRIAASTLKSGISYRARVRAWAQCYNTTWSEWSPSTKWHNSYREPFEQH
Description: Example 3a. […] A 96-well multi-array plate (Meso Scale Diagnostics, Cat. #L15XA-3) was coated at 4° C. overnight with 0.5 μg/mL hexahistidine-tagged human or cynomolgus monkey IL-4Rα ECD in phosphate buffered saline (PBS). Following coating, plates were washed 10 times with 200 μL PBST (PBS with 0.05% Tween® 20) and blocked with 300 μL/well of PBS casein blocking buffer (Pierce, Cat. #37528) at 37° C. for 1 hour. Plates were then washed 10 times as above, and 50 μL of the preincubated antibody:IL-4Rα dilution series was transferred to the wells and incubated at 37° C. with 300 rpm shaking for […]. Plates were washed 10 times with PBST, 50 μL of 1 μg/mL anti-human antibody sulfo-tag 20 (Meso Scale Diagnostics, Cat. #R32AJ-1) was added to the plates for the assay of Table 7a, and anti-Human NHP Kappa Light chain SULFO-TAG 20 (Meso Scale Diagnostics, Cat #D20TF-6) was added to the plates for the assay of Table 7b, and plates were incubated at 37° C. with 300 rpm shaking for 30 minutes. Plates were washed 10 times with PBST, 150 μL/well of 1× Read Buffer T was added to the wells and analyzed on a SECTOR® Imager 6000 (Meso Scale Diagnostics) 15 min after buffer addition. The apparent KD is determined by fitting a sigmoidal curve to the electrochemiluminescence (ECL) response vs. log (soluble IL-4Rα concentration) using GraphPad Prism 9. Data is graphed with normalized ECL values.

[4] = molecular target: T3, hexahistidine tagged human IL-4Rα ECD L42G (human, UniProt P24394 26-232); test: capture ELISA: Ab1 on anti-human IgG Fc, His-tagged receptor at 0.2 µg/mL, anti-His HRP
T3 construct: not shown: hexahistidine tag
Text: (§1) Example 2d. […] Briefly, thirty surface amino acid residue substitutions were introduced individually into hexahistidine tagged human IL-4Rα extra cellular domain (ECD) as follows: K2D, E6R, K22D, P26R, T31R, F41A, L42G, L43G, E45R, E52R, G56R, D66R, A71R, Q82G, K87D, E94R, H107A, D108R, P124R, D125R, D143R, R148D, L155R, R160D, S164R, S168R, Q181R, P192R, K195D, or H197G. Each mutant protein having a single amino acid residue substitution as described above was transiently expressed in CHO cells and purified using standard immobilized metal affinity chromatography techniques. […] The plates were then washed 3 times with PBST and the exemplified human IL-4Rα antibody was added to the wells at a final concentration of 1 μg/mL in PBS-casein and incubated for 1 hour at room temperature. The plates were washed 3 times with PBST, the IL-4Rα mutant proteins were serially diluted 5-fold from 1 μg/mL for 3 points. in PBS-casein and added to the plate at 50 μL/well and incubated for 1 hour at room temperature. The plates were washed 3 times with PBST and a 1000-fold dilution of anti-histidine tag antibody HRP conjugate (R&D Systems, Cat. #MAB050H) in PBS-casein was added and incubated for 45 minutes at room temperature. The plates were washed 3 times, TMB substrate (Pierce, Cat. #34028) was added per manufacturer instructions, the reaction was quenched with H₂SO₄, and absorbance was read at 450 nm on an ELISA plate reader.

[5] = molecular target: T4, hexahistidine tagged human IL-4Rα ECD E52R (human, UniProt P24394 26-232); test: as above
T4 construct: not shown: hexahistidine tag
Text: as §1

[6] = molecular target: T1, human IL-4Rα on cells (human PBMC B …); test: cell-based or functional assay; remark: listed apart in the source

T4 sequence (P24394 26-232 E77R): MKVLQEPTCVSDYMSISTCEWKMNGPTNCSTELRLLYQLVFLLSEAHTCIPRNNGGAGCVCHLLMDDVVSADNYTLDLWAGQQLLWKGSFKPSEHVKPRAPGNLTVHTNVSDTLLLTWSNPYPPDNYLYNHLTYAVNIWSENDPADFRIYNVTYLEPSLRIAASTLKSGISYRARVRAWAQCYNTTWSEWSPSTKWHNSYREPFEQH
T3 sequence (P24394 26-232 L67G): as the sequence (P24394 26-232 E77R) above, with L42G, R52E counted along it

Inhibition of IL-13 induced STAT6 phosphorylation in B cells, IC50 [1]: 0.03 µg/mL
Inhibition of IL-4 induced CD23 Expression on myeloid cells, IC50 [2]: 8.27 nM
Kd [3]: 0.0312 nM
ELISA (OD450) [4]: 1.48 OD450
ELISA (OD450) [5]: 1.71 OD450
Inhibition of IL-4 induced STAT6 phosphorylation, B cells, IC50 [6]: 0.019 µg/mL
Inhibition of IL-4 induced STAT6 phosphorylation, CD4+ T cells, IC50 [6]: 0.017 µg/mL
B1: anti-human IL-4Rα antibody Ab1 (antibody, human IgG4 S228P, kappa)
heavy: QVQLVESGGGLVQPGGSLRLSCVASGFTFSHSSMNWVRQAPGKGLEWVSYISRATGAVYYADSVKGRFTISRDNAKNSLYLQMNSLRDEDTAVYYCAREPVFDYWGQGTLVTVSSASTKGPCVFPLAPCSRSTSESTAALGCLVKDYFPEPVTVSWNSGALTSGVHTFPAVLQSSGLYSLSSVVTVPSSSLGTKTYTCNVDHKPSNTKVDKRVESKYGPPCPPCPAPEFLGGPSVFLFPPKPKDTLMISRTPEVTCVVVDVSQEDPEVKFNWYVDGVEVHNAKTKPREEQFNSTYRVVSVLTVLHQDWLNGKEYKCKVSNKGLPSSIEKTISKAKGQPREPQVYTLPPSREEMTKNQVSLTCLVKGFYPSDICVEWESNGQPENNYKTTPPVLDSDGSFFLYSRLTVDKSRWQQGNVFSCSVMHEALHNHYTQKSLSLSLG
light: DIQMTQSPSAMSASVGDRVTITCRASQDISNYLAWFQQKPGKVPTRLIYAASSLQSGVPSRFSGSGSGTEFTLTISSLQPEDFATYYCLQWSSYPRTFGQGTKVEIKRTVAAPSVFIFPPSDEQLKSGTASVVCLLNNFYPREAKVQWKVDNALQSGNSQESVTEQDSKDSTYSLSSTLTLSKADYEKHKVYACEVTHQGLSSPVTKSFNRGEC
notes: human kappa light chain; also called anti-human IL-4Rα Ab1; unconjugated Ab1

Inhibition of IL-13 induced STAT6 phosphorylation in B cells, IC50 [1]: 0.064 µg/mL
Inhibition of IL-4 induced CD23 Expression on myeloid cells, IC50 [2]: 10.8 nM
Kd [3]: 0.0247 nM
Inhibition of IL-4 induced STAT6 phosphorylation, B cells, IC50 [6]: 0.046 µg/mL
Inhibition of IL-4 induced STAT6 phosphorylation, CD4+ T cells, IC50 [6]: 0.041 µg/mL
B2: anti-human IL-4Rα Ab1 GC conjugate of Example 1b (n=4) (antibody, human IgG4 S228P, kappa)
heavy: B1 heavy
light: B1 light
modifications: glucocorticoid receptor agonist payload-linker (GC-L, Preparation 8) conjugated to the engineered cysteines at the 124 and 378 position of the heavy chain (EU numbering); n is 4 (average DAR 4.17 by RP-HPLC, 3.85 by TOF MS)
